Laboratory results published in paper PMC11006869.

Assays:
[1] = molecular target: ErNaR, NDQ rhodopsin (light-driven sodium pump) from Erythrobacter sp. HL-111 (Erythrobacter sp. HL-111); test: SEC; detergent-solubilized ErNaR, pH 2.3
[2] = molecular target: ErNaR, NDQ rhodopsin (light-driven sodium pump) from Erythrobacter sp. HL-111 (Erythrobacter sp. HL-111); test: SEC; detergent-solubilized ErNaR, pH 8.0
[3] = molecular target: ErNaR, NDQ rhodopsin (light-driven sodium pump) from Erythrobacter sp. HL-111 (Erythrobacter sp. HL-111); test: cryo-EM structure; single particle; 20 mM Tris pH 8.0, 200 mM NaCl, 0.05% DDM; C5 symmetry; 2.63 Å
[4] = molecular target: ErNaR, NDQ rhodopsin (light-driven sodium pump) from Erythrobacter sp. HL-111 (Erythrobacter sp. HL-111); test: cryo-EM structure; single particle; 100 mM sodium acetate pH 4.3, 200 mM NaCl, 0.05% DDM; C5 symmetry; 2.50 Å

Measured: stoichiometry N

ErNaR, NDQ rhodopsin (light-driven sodium pump) from Erythrobacter sp. HL-111 (natural protein)
5: all assays above
